Measured values from the supplement of paper PMC10567573.
± gives the standard deviation.

Assay: protein stability index of a GFP-peptide fusion (GPS, HEK-293T) (PSI 1-6); higher = more stable
[1] = treatment: DMSO, c terminus: a fixed tail appended
[2] = treatment: MLN4924 1 uM, 8 h, c terminus: a fixed tail appended
[3] = treatment: DMSO, c terminus: native
[4] = treatment: MLN4924 1 uM, 8 h, c terminus: native
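Also: 24-mer peptide tiles fused after GFP, lentivirally expressed, FACS-sorted into six equal bins by GFP/DsRed ratio, decoded by Illumina sequencing, PSI is the read-weighted mean bin number.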

SHHLAVYNSPQFKKTMSTFHNLVS [FBXO39]
protein stability index [1]: 2.25 ± 0.28
protein stability index [2]: 2.31 ± 0.1

KSPIAPCSLDKRVILIFHCEFSSE [CDC25B]
protein stability index [1]: 2.73 ± 0.5
protein stability index [2]: 2.8 ± 0.47

FKNRLVNIMPYESTRVCLQPIRGV [PTPRD]
protein stability index [1]: 2.35 ± 0.35
protein stability index [2]: 2.33 ± 0.47

PLSPPTAPDRATAVATASRLGPYV [TRIB3]
protein stability index [1]: 4.72 ± 0.26
protein stability index [2]: 4.65 ± 0.091

DALRFTADVRSVLSRNLHQHRLW [CTDNEP1]
protein stability index [3]: 2.6 ± 0.48
protein stability index [4]: 2.99 ± 0.26

CHLTPSIYTEFPDETLRSGELLNM [INTS3]
protein stability index [1]: 3.04 ± 0.17
protein stability index [2]: 2.99 ± 0.24

EQEHAAIQDKLFQVAKREREAATK [CHCHD6]
protein stability index [1]: 5.38 ± 0.36
protein stability index [2]: 5.48 ± 0.16

RGDERILSILRHQNLLKELQDLAL [CHGA]
protein stability index [1]: 2.36 ± 0.4
protein stability index [2]: 2.41 ± 0.29

VVLLFETALLSSGFSLEDPQTHSN [HSP90AB1]
protein stability index [2]: 2.83 ± 0.84

SIVAQVDQTGSKSSNLLDLKNPFF [CARM1]
protein stability index [1]: 3.01 ± 0.15
protein stability index [2]: 3.43 ± 0.27

INYNGIFSLKQEETLDYGKNYNYG [NEUROD6]
protein stability index [1]: 2.49 ± 0.22
protein stability index [2]: 2.53 ± 0.22

ILILEGGYNLTSISESMAACTRSL [HDAC6]
protein stability index [1]: 2.97 ± 0.61
protein stability index [2]: 2.63 ± 0.8

ASKGCQLGKTEQGFENMDFFTLDL [TRIM63]
protein stability index [1]: 3.22 ± 0.19
protein stability index [2]: 3.22 ± 0.31

PQQTWASPAEVVDLTLDEDSRRKY [C18orf25]
protein stability index [1]: 5.1 ± 0.3
protein stability index [2]: 5.13 ± 0.14

MALLRKINQVLLFLLIVTLCVILY [GLT8D2]
protein stability index [1]: 2.12 ± 0.27
protein stability index [2]: 2.11 ± 0.18

VASGSTPAPALCCAPYDSRLLGSA [IRX6]
protein stability index [1]: 2.64 ± 0.21
protein stability index [2]: 2.99 ± 0.13

TTVPEVEPPQDSHSRKTVLIKTIE [PRPH]
protein stability index [1]: 4.58 ± 0.3
protein stability index [2]: 4.6 ± 0.38

DLIDVDLIRGSTFAKAKPEIPWTS [PHTF1]
protein stability index [1]: 2.25 ± 0.17
protein stability index [2]: 2.46 ± 0.22

SHFVFVIEVKTKGGSKYLIYRRYR [NCF4]
protein stability index [1]: 2.81 ± 0.56
protein stability index [2]: 2.48 ± 0.33

SNASEDTRRLRLAHVGMELQLKQE [SCARA5]
protein stability index [1]: 4.29 ± 0.33
protein stability index [2]: 4.4 ± 0.29

RKPSVPWQRQMDQPQDRNQALGTH [RASAL3]
protein stability index [1]: 4.08 ± 0.16
protein stability index [2]: 4.21 ± 0.19

VYDNEKKLQLQLNETKSQAFVSNS [PLD5]
protein stability index [1]: 4.48 ± 0.47
protein stability index [2]: 4.33 ± 0.19

KLENARLSSEMNTSTVNSAREELM [LMNB1]
protein stability index [1]: 4.59 ± 0.19
protein stability index [2]: 4.71 ± 0.11

EDENDLEELNNGEPQTEHQQESES [MIA2]
protein stability index [1]: 5.57 ± 0.21
protein stability index [2]: 5.74 ± 0.12

GARDGIRYLEAEFKKGNRYIRCQK [SMG5]
protein stability index [1]: 3.14 ± 0.3
protein stability index [2]: 3.57 ± 0.32

ENIAWVKSYNICFELEDSNEIFTQ [PDS5B]
protein stability index [1]: 2.46 ± 0.61
protein stability index [2]: 2.53 ± 0.28

LHIPMYFFLAILSCSEICYTFIIV [OR10K2]
protein stability index [1]: 3.65 ± 0.48
protein stability index [2]: 3.18 ± 0.38

QAQAVQTEQAVALLRDRTGQQSDT [SCARA5]
protein stability index [1]: 5.35 ± 0.34
protein stability index [2]: 5.19 ± 0.23

IVDQVLEEDFDSEQLSVLASCLQE [INTS3]
protein stability index [1]: 4.16 ± 0.16
protein stability index [2]: 4.23 ± 0.3

MRHEELLTKTFQGPAVVCGTPTSH [LYSMD4]
protein stability index [1]: 3.82 ± 0.19
protein stability index [2]: 3.82 ± 0.13

RTLRNFINDEMQAKGIPQRAPPKR [PCMTD1]
protein stability index [1]: 4.06 ± 0.16
protein stability index [2]: 3.98 ± 0.36

LTGFSWRGGSDPETTGIQIWSEVF [ATL3]
protein stability index [1]: 2.16 ± 0.33
protein stability index [2]: 1.59 ± 0.4

LDRVRGGRQKYKRRPEVDPLPFPG [ESRRA]
protein stability index [1]: 3.68 ± 0.36
protein stability index [2]: 3.92 ± 0.41

ASHTVGFTPPTSLTRAGMSYYNSP [CCDC6]
protein stability index [1]: 2.82 ± 0.44
protein stability index [2]: 3.18 ± 0.21

LGPVPREDQAEAWGCSCCPPETKH [TSPAN10]
protein stability index [1]: 4.91 ± 0.083
protein stability index [2]: 4.97 ± 0.32

SLEHTLRVAIAHYQDDPDLRFLLD [TSPAN10]
protein stability index [1]: 2.69 ± 0.16
protein stability index [2]: 2.98 ± 0.14

CRKAKEIRKERKRLKLMQQNPAGE [ATE1]
protein stability index [1]: 4 ± 0.25
protein stability index [2]: 4.37 ± 0.2

PGAHGRFMPQGAGGHTREARIQTL [RSAD1]
protein stability index [1]: 3.63 ± 0.35
protein stability index [2]: 3.67 ± 0.29

DDCSSTIVEDPQTKCEYMLNSMPK [ESRRG]
protein stability index [1]: 4.87 ± 0.29
protein stability index [2]: 4.95 ± 0.22

ALGHLGNDDSADYQHFLQDCVDGL [DLC1]
protein stability index [1]: 4.26 ± 0.17
protein stability index [2]: 4.28 ± 0.46

ASGKLRKKKKKQKNKKSSTGEASE [TCF25]
protein stability index [1]: 4.9 ± 0.23

AVEAELKSSTVGLVTLNDMKAKQE [FAM50A]
protein stability index [1]: 5.21 ± 0.2
protein stability index [2]: 5.25 ± 0.13

KVYYEVIQLIKTNKKHIHSRSTLE [SMG5]
protein stability index [1]: 2.33 ± 0.93
protein stability index [2]: 2.26 ± 0.25

GAVIEVFGHRFIILDTDEYVLKYM [EFHC1]
protein stability index [1]: 2.5 ± 0.56
protein stability index [2]: 2.27 ± 0.67

AQLQDFVRAKGSQSGRHLQTHSNT [STX5]
protein stability index [1]: 4.13 ± 0.08
protein stability index [2]: 4.24 ± 0.15

PLRSSLPISLQATPATPATLSASS [TFE3]
protein stability index [1]: 4.47 ± 0.1
protein stability index [2]: 4.57 ± 0.14

NIHMNFTHICRSHNSINQSLDESV [SLC2A12]
protein stability index [1]: 2.56 ± 0.25
protein stability index [2]: 2.54 ± 0.23

EGMDRWIKKIEEHAPGVPKILVGN [RAB40A]
protein stability index [1]: 3.41 ± 0.18
protein stability index [2]: 3.21 ± 0.31

PDGVCLSGGRGPQGDKAIREQGPR [PBXIP1]
protein stability index [1]: 5.21 ± 0.14
protein stability index [2]: 4.88 ± 0.35

LPWFRTLSWYFLLCVNYFFYGETV [CDS1]
protein stability index [1]: 3.08 ± 0.14
protein stability index [2]: 3.38 ± 0.75

ALELLGATFVDKKRDLLGALKYWK [FEM1C]
protein stability index [1]: 2.25 ± 0.37
protein stability index [2]: 2.52 ± 0.86

QAKEELARMLREYQELMSLKLALD [KRT71]
protein stability index [1]: 2.61 ± 0.37
protein stability index [2]: 2.77 ± 0.47

FVELIGPKLREETAHMLGVRELRI [CABP4]
protein stability index [1]: 2.69 ± 0.88
protein stability index [2]: 2.14 ± 0.88

PGNGTHGLSPEEKEQLSNDRETQE [ELOA2]
protein stability index [1]: 5.73 ± 0.074
protein stability index [2]: 5.75 ± 0.16

PWKKCCFSGDGEYIVAGSARQHAL [RBBP5]
protein stability index [1]: 2.14 ± 0.27
protein stability index [2]: 2.36 ± 0.22

TEPEQRELKTKLTKLEAEIVTLRH [TPD52L3]
protein stability index [1]: 4.23 ± 0.15
protein stability index [2]: 4.35 ± 0.26

GRPIKPPKKDLEDGEVPQHAGKKG [BRD3]
protein stability index [1]: 5.41 ± 0.37
protein stability index [2]: 5.55 ± 0.061

GKSLLLMTRNDVLTGLQLKLGPAL [SAMD13]
protein stability index [1]: 2.27 ± 0.4
protein stability index [2]: 2.26 ± 0.28

KAVVFFVFYLWSAIEIFRYSFYML [HACD3]
protein stability index [1]: 3.46 ± 0.28
protein stability index [2]: 3.08 ± 0.32

STGEAGTDGDHNVYPRPPEPREFS [ZC2HC1C]
protein stability index [1]: 5.03 ± 0.19
protein stability index [2]: 5.03 ± 0.16

LWEKLAKQGELPREVRRAQARLLN [NOP53]
protein stability index [1]: 2.78 ± 0.12
protein stability index [2]: 2.82 ± 0.67

RAPQGCSGVDECARQEGLTFFGTE [PBXIP1]
protein stability index [1]: 4.01 ± 0.35
protein stability index [2]: 4.3 ± 0.55

EIIPINVNNNYEHRHTSHLGHAVL [SPRY1]
protein stability index [1]: 2.34 ± 0.15
protein stability index [2]: 2.43 ± 0.3

RGIIMTFGSGSNGCLGHGSLTDIS [NEK8]
protein stability index [1]: 2.45 ± 0.22
protein stability index [2]: 2.4 ± 0.31

VCVFLSHGEGNHIYAYDAKIEIQT [CASP6]
protein stability index [1]: 3.11 ± 0.26
protein stability index [2]: 2.75 ± 0.64

ELERCRQQAGLLVTGEKEEPSRSA [PPEF2]
protein stability index [1]: 4.95 ± 0.27
protein stability index [2]: 5.11 ± 0.86

SLPPPAGLNSSWVELPMNSSNGND [BNIP3L]
protein stability index [1]: 4.94 ± 0.26
protein stability index [2]: 4.88 ± 0.29

FPKKLAFAYLEDLHSEFDEQHGKK [SEC22B]
protein stability index [1]: 2.89 ± 0.28
protein stability index [2]: 3.26 ± 0.38

DLAGLGSETPKSQVGTLLFRSRSR [CDC25B]
protein stability index [1]: 3.83 ± 0.35
protein stability index [2]: 4.11 ± 0.35

LPSLGLPQYRSYFMECLVDARMLD [PPFIA4]
protein stability index [1]: 2.47 ± 0.46
protein stability index [2]: 2.13 ± 0.38

SNEFKESALTLACYKGHLEMVRFL [ANKRD17]
protein stability index [1]: 2.21 ± 0.18
protein stability index [2]: 2.4 ± 0.34

TRQLHEKTSQLSYYYMGFYIHSCP [ATE1]
protein stability index [1]: 2.83 ± 0.71
protein stability index [2]: 2.54 ± 0.41

MQIAVPCAFLLLRLLVGLALATLR [TMEM175]
protein stability index [1]: 2.46 ± 0.28
protein stability index [2]: 2.26 ± 0.17

CPWEPQKQPPWEFLQVLEPGARGL [SPAG8]
protein stability index [1]: 3.11 ± 0.24
protein stability index [2]: 3.36 ± 0.11

VAVLLLFLVVREPPRGAVERHSDL [SPNS1]
protein stability index [1]: 3.02 ± 0.64
protein stability index [2]: 2.99 ± 0.53

HVDSIKFCGATIAGLSLLSPSVMR [ALKBH7]
protein stability index [1]: 2.2 ± 0.81
protein stability index [2]: 2.19 ± 0.39

PIGCDGVLFSTHTLDKCGICQGDG [ADAMTSL2]
protein stability index [1]: 3.62 ± 0.26
protein stability index [2]: 3.79 ± 0.47

VTQPCGDCGTIQENWVCLSCYQVY [HDAC6]
protein stability index [1]: 2.89 ± 0.57
protein stability index [2]: 2.96 ± 0.7

HEMREQHDAQVRLYKEELEQTYHA [LMNB1]
protein stability index [1]: 4.08 ± 0.38
protein stability index [2]: 4.27 ± 0.48

IPQAGGWGPWGPWGDCSRTCGGGV [ADAMTS4]
protein stability index [1]: 2.68 ± 0.15
protein stability index [2]: 2.47 ± 0.22

FAQPMMRPPFGAAAVPGTQLSPSP [SNAP91]
protein stability index [1]: 3.43 ± 0.31
protein stability index [2]: 3.71 ± 0.35

EGFLFVFGGQDENKQTLSSGEKYD [GAN]
protein stability index [1]: 3.11 ± 0.28
protein stability index [2]: 3.73 ± 0.64

GSLCSLWFGASVLSLLELLELLLD [SCNN1D]
protein stability index [1]: 2.17 ± 0.36
protein stability index [2]: 1.91 ± 0.27

KYSVYIYVYFHTKLTSQNSKRVS [R3HDM1]
protein stability index [3]: 2.55 ± 0.71
protein stability index [4]: 2.24 ± 0.15

VFIISTLAIDFIDEGRLLLEFDLL [SOAT2]
protein stability index [1]: 3.23 ± 0.31
protein stability index [2]: 3.03 ± 0.36

IPVLYCMVFIAGILLNGVSGWIFF [P2RY14]
protein stability index [1]: 3.28 ± 0.64
protein stability index [2]: 2.9 ± 0.37

PHKERYFDRVDENNPEYLRERNMA [ADD1]
protein stability index [1]: 4.47 ± 0.36
protein stability index [2]: 4.69 ± 0.14

VYRFVCDLQNLLGFTPEELHAILG [ETS2]
protein stability index [1]: 2.21 ± 0.41
protein stability index [2]: 2.19 ± 0.11

HLCLRKADQKLVIIKQIPVEQMTK [NEK8]
protein stability index [1]: 2.46 ± 0.19
protein stability index [2]: 2.75 ± 0.23
